In patent US20070298997A1, “Compounds useful in treating diabetic microvascular complications and age-related macular degeneration” (priority 2003, published 2007):
Entries after “also recorded” stand apart in the source; their conditions may differ.

What was measured:
VEGF binding to RCEC = experiment: VEGF binding assay (125I-VEGF); parameters: species or system bovine; conditions: 1 h, 0.5, 5 and 50 μg competitor (VEGF:kallistatin 1:5, 1:50, 1:500)
Procedure: FIG. 8 illustrates inhibition of VEGF binding to RCEC by kallistatin. […] To determine the competition between kallistatin and VEGF in RCEC binding, ^125I-VEGF was added to RCEC together with 0.5, 5 and 50 μg of unlabeled kallistatin to result in VEGF:kallistatin molar ratios of 1:5, 1:50 and 1:500, respectively.
VEGF binding assay: VEGF (PeproTech, Inc., Rocky Hill, N.J.) was labeled with 125I using the Chloromine T ^125I Labeling Kit (ICN Pharmaceuticals, Inc. Costa Mesa, Calif.) following a protocol recommended by the manufacturer. For the binding assay, RCEC were seeded in 12-well plates and cultured until 80% confluency was reached. The culture medium was replaced with serum-free medium. ^125I-VEGF was added to the medium, 2.5×10^5 CPM/well with and without different concentrations of kallistatin or recombinant plasminogen kringle 5 (K5) and incubated with the cells for 1 h. The medium was removed and cells washed three times with PBS. The cells were then lysed by the addition of 0.35 ml 10% SDS. The cell lysates were collected, and the 125I-VEGF bound to RCEC was quantified by a gamma counter.

RCEC = experiment: [3H] thymidine incorporation assay; format: cell-based, bovine; conditions: 5 to 160 nM
Procedure: [^3H] thymidine incorporation assay: RCEC were seeded in 24-well plates in 1:1 DMEM +F-12 nutrient mixture plus 10% FBS and cultured in a CO2 incubator to reach 60-70% confluency. The cells were washed 3 times with PBS and the growth medium replaced by a medium containing 1% FBS and different concentrations of kallistatin. After 24 h culture, [^3H] thymidine was added to the medium (2 μCi/well) and incubated with the cells at 37° C. for 12 h. Free [^3H] thymidine was removed by 3 washes with PBS, and a solution of 6% TCA was added to the wells. The TCA solution was removed, and the wells were washed once with PBS. The remaining material was solubilized with 200 μl of 1 M NaOH (Smith et al., 1999). Incorporated [^3H] thymidine was measured with a microplate scintillation counter (Packard Instrument Company, Meriden, Conn.).

[1] = test system: primary human mesangial cells (HMC); experiment: High glucose-induced fibronectin secretion in HMC (ELISA); format: cell-based; conditions: 30 mM glucose, 25 to 1600 nM, 3 days
Procedure: FIG. 11 illustrates blockage of high glucose-induced fibronectin secretion by kallistatin in human mesangial cells (HMC). Primary HMC was treated with high glucose (30 mM) in the presence of different concentrations of kallistatin as indicated for 3 days. Control cells were cultured in 5 mM glucose. To overcome the osmolarity difference, mannitol control cells were treated with 25 mM mannitol+5 mM glucose under the same conditions. Fibronectin secreted into the culture medium was measured by ELISA (mean±SD, n=3).
Cultured primary human mesangial cells (HMC) were treated with 30 mM glucose in the absence or presence of different concentrations of kallistatin (25-1600 nM) for 3 days. Cells cultured in 5 mM glucose were used as a control. To exclude the possible effect of osmolarity from high glucose, an osmolarity control was also included which was treated with 5 mM glucose and 25 mM mannitol. After the treatments for 3 days, secretion of fibronectin into the culture medium was measured.

PEDF = PEDF secretion in HMC under high glucose (ELISA); format: cell-based, human; conditions: 30 mM glucose, 3 days
Procedure: FIG. 13 illustrates prevention of the high glucose-induced decrease of PEDF in HMC by kallistatin. HMC were treated with high glucose (30 mM) in the presence of different concentrations of kallistatin for 3 days. Control cells were treated with 5 mM glucose and 5 mM glucose+25 mM mannitol as an osmolarity control. PEDF secretion into the medium was measured by ELISA (mean±SD, n=3).
Kallistatin up-regulates endogenous anti-inflammatory factors in the kidney. Pigment epithelium-derived factor (PEDF) is an anti-angiogenic factor. Recently, the inventor has shown that PEDF also has anti-inflammatory activities and has a protective effect against DN (see U.S. Ser. No. 10/963,115, filed Oct. 12, 2004, the contents of which are hereby expressly incorporated herein by reference). Decreased PEDF levels in diabetic kidney may contribute to the development of DN. The effect of kallistatin on PEDF expression has been determined in kidney cells. HMC were treated with high glucose (30 mM glucose) with different concentrations of kallistatin for 3 days. The PEDF levels in the cultured medium were measured by ELISA specific for PEDF.

VEGF = VEGF in RCEC cell lysate by Western blot; format: cell-based, bovine; conditions: RCEC under hypoxia, 24 h, 40-640 nM
Procedure: FIG. 9 illustrates down-regulation of VEGF expression by kallistatin. As increased VEGF levels in the retina and vitreous play a key role in the development of retinal neovascularization, the effect of kallistatin on the expression of VEGF in cultured RCEC was determined. VEGF secreted into the conditioned medium was measured by VEGF ELISA and normalized by total protein concentration in the medium.
Measurement of VEGF in the conditioned medium of RCEC by ELISA: RCEC were seeded in T75 flasks in endothelial cell growth medium and cultured in a CO2 incubator to reach 60-70% confluency. The cells were washed 3 times with PBS and the growth medium replaced by a serum-free medium containing bFGF (GIBCO-BRL, Gaithersburg, Md.). Kallistatin was added to the medium to various concentrations and incubated with the cells for 24 h under normoxia or hypoxia (in a chamber that was perfused with a mixture of 95% N2+5% CO2). The conditioned medium was harvested for VEGF ELISA and the cells were used for Western blot analysis. The conditioned medium was centrifuged and the protein concentration in the supernatant was measured with BioRad protein assay. VEGF concentration was measured using a VEGF ELISA kit (R& D systems, Minneapolis, Minn.) and normalized by total protein concentration in the medium. […]

B1: kallistatin: Recombinant His-tagged rat kallistatin (serpin, SEQ ID NO:1) expressed in E. coli and affinity-purified (protein, listed as Homo sapiens)
chain: DGILGRDTLPHEDQGKGRQLHSLTLASINTDFTLSLYKKLALRNPDKNVVFSPLSISAALAILSLGAKDSTMEEILEVLKFNLTEITEEEIHHQGFGHLLQRLSQPEDQAEINTGSALFIDKEQPILSEFQEKTRALYQAEAFVADFKQCNEAKKFINDYVSNQTQGKIAELFSELDERTSMVLVNYLLFKGKWKVPFNPNDTFESEFYLDEKRSVKVPMMKIKDLTTPYIRDEELSCSVLELKYTGNASALFILPDQGKMQQVESSLQPETLKKWKDSLRPRIISELRMPKFSISTDYNLEEVLPELGIRKIFSQQADLSRITGTKNLHVSQVVHKAVLDVDETGTEGAAATAVTAALKSLPQTIPPLNFNRPFMLVITDNNGQSVFFMGKVTNPM
modifications: His tag
VEGF binding to RCEC
  VEGF bound to RCEC: decreased in a kallistatin concentration-dependent manner
RCEC
  thymidine incorporation (cell proliferation rate): inhibited thymidine incorporation in RCEC in a concentration-dependent manner
[1]
  fibronectin production (secretion into medium): concentration-dependent decrease of fibronectin production; also recorded: fibronectin was significantly lower than the high glucose alone
PEDF
  PEDF levels in the cultured medium: prevents the decrease of PEDF under the high glucose insult
PEDF; listed as Kallistatin
  PEDF levels in the cultured medium: reversed the changes of PEDF under high glucose conditions
VEGF
  VEGF levels in the cell lysate: reduced VEGF levels in the cell lysate of RCEC in a concentration-dependent manner
